In PMC5932101 (EJNMMI Radiopharmacy and Chemistry, 2018):

Legend:
[1] = in vivo; design: species or system mice; settings: female, athymic Balb/c nude, mouse, iv, total radioactivity
Method: (§1) All animal experiments complied with the current laws of the Federal Republic of Germany and were conducted according to German Animal welfare guidelines. Normal female athymic Balb/c nude mice (17–20 g, 4–6 weeks old) were obtained from Janvier SAS (St. Berthevin Cedex, France). Mice were provided with food and water ad libitum. U-87 MG tumors were inoculated on the right shoulder by sub-cutaneous injection of 5×10^6 cells in a 100 μL cell suspension of a 1:1 v/v mixture of media with reconstituted basement membrane (GFR BD Matrigel™, Corning BV, Amsterdam, Holland).
For PET imaging studies, mice (n = 3) were injected with 100 μL sterile filtered phosphate buffered saline formulations pH 7.4 of [^68Ga]3 (7–11 MBq) by intravenous tail-vein injection and anesthetized with isoflurane (2–4% in air) 5–10 min prior image acquisition. PET imaging was performed on a Focus 120 microPET scanner at 1 h after administration. Data were acquired 1 h post administration in list mode. Reconstruction was performed using unweighted OSEM2D. Image analysis was performed using AMIDE. Image counts per second per voxel (cps/voxel) were calibrated to activity concentrations (Bq mL^− 1) by measuring a 3.5 cm cylinder phantom filled with a known concentration of radioactivity.

[2] = in vivo; design: species or system mice; settings: female, athymic Balb/c nude, mouse, iv, total radioactivity; remark: listed apart in the source
Method: as §1
For each compound, a total of five animals were injected with [^68Ga]3 (7–11 MBq) in 100 μL sterile filtered phosphate buffered saline via a tail vein. At 1 h p.i., animals were sacrificed by isoflurane anesthesia. Organs of interest were dissected, weighed and assayed for radioactivity in a gamma counter. The percent injected activity per gram (%IA g^− 1) for each tissue was calculated by comparison of the tissue counts to a standard sample prepared from the injectate.

[3] = test system: mice bearing αvß3-positive U-87 MG tumors; settings: mouse, in vivo; cited from earlier work
Method: Table 1 Ex vivo biodistribution of [^68Ga]3 in mice bearing αvß3-positive U-87 MG tumors at 1 h p.i. along with blocking studies in comparison to [^68Ga]Ga-NODAGA-c(RGDfK) and [^68Ga]Ga-DOTA-c(RGDfK) (data taken from ref. Dumont et al. [2011]). Data are expressed as %IA g^− 1 and represent mean ± SD (n = 5) | column: [^68Ga]Ga-NODAGA-c(RGDfK) / 1 h; [^68Ga]Ga-DOTA-c(RGDfK) / 1 h || Biodistribution data for [^68Ga]3 are presented in Table 1. For comparison, equivalent data taken from the literature are also given for compounds [^68Ga]Ga-NODAGA-c(RGDfK) and [^68Ga]Ga-DOTA-c(RGDfK) (Dumont et al. [2011]). The primary difference between these three compounds is the change in chelator.

[4] = test system: U-87 MG tumor bearing mice; settings: mouse, in vivo; cited from earlier work
Method: In addition to the ex vivo biodistribution studies, the distribution profile of [^68Ga]3 was also assessed 1 h after administration by small-animal PET imaging. Corresponding transverse and coronal maximum intensity projections of [^68Ga]3 in αvß3 xenograft bearing mice along with blocking studies are given Fig. 2. The results of the biodistribution study were confirmed by PET imaging. The αvß3 positive U-87 MG tumors as well as the liver and the kidneys were clearly visible on the PET images. The tumor uptake of [^68Ga]3 was determined to 2.48 ± 0.14 %IA g^− 1. The differences in blood and ti ...

[5] = cited from earlier work
Text: The radiolabelled conjugate [^68Ga]3 is highly hydrophilic with a log Doct/PBS value of − 3.89 ± 0.02.

## Cn1ccnc1CN1CCN(CC(=O)NCCCC[C@@H]2NC(=O)[C@@H](Cc3ccccc3)NC(=O)[C@H](CC(=O)O)NC(=O)CNC(=O)[C@H](CCCNC(=N)N)NC2=O)CCN(Cc2nccn2C)CC1 [[^68Ga]3, [^68Ga]Ga-NODIA-Me-c(RGDfK), metal not drawn]
[1]
  tissue to tissue ratio at 1 h: 6.76
[2]; Accumulation in all other organs (other than tumor, kidney, liver)
  tissue uptake at 1 h: < 1 %ID/g
[2]; Tumor-to-blood ratio
  tissue to tissue ratio at 1 h: 3.91 ± 0.43
[2]; Tumor-to-kidney ratio
  tissue to tissue ratio at 1 h: 1.27 ± 0.04
[2]; Tumor-to-liver ratio
  tissue to tissue ratio at 1 h: 2.08 ± 0.18
[2]; Tumor-to-muscle ratio
  tissue to tissue ratio at 1 h: 11.7 ± 0.29

## [^68Ga]Ga-DOTA-c(RGDfK) (head to tail)
[3]
  Tumor-to-blood ratio: 9.24 ± 1.12
  Tumor-to-kidney ratio: 1.57 ± 0.14
  Tumor-to-liver ratio: 2.25 ± 0.37
  Tumor-to-muscle ratio: 12.37 ± 1.81
[4]
  Tumor-to-background ratio (PET): 3.28
[5]
  log D: − 2.86 ± 0.01

## [^68Ga]Ga-NODAGA-c(RGDfK) (head to tail)
[3]
  Tumor-to-blood ratio: 27.67 ± 7.01
  Tumor-to-kidney ratio: 2.64 ± 0.31
  Tumor-to-liver ratio: 2.75 ± 0.31
  Tumor-to-muscle ratio: 12.80 ± 5.25
[4]
  Tumor-to-background ratio (PET): 11.97
[5]
  log D: − 3.27 ± 0.01
